Measurements from US20100098630A1, “Phenazine and Quinoxaline Substituted Amino Acids and Polypeptides” (AMBRX, INC., priority 2006, published 2010).

Biological target: T1, GH receptor-producing cells (Homo sapiens, UniProt P10912)
T1 sequence (P10912 19-638): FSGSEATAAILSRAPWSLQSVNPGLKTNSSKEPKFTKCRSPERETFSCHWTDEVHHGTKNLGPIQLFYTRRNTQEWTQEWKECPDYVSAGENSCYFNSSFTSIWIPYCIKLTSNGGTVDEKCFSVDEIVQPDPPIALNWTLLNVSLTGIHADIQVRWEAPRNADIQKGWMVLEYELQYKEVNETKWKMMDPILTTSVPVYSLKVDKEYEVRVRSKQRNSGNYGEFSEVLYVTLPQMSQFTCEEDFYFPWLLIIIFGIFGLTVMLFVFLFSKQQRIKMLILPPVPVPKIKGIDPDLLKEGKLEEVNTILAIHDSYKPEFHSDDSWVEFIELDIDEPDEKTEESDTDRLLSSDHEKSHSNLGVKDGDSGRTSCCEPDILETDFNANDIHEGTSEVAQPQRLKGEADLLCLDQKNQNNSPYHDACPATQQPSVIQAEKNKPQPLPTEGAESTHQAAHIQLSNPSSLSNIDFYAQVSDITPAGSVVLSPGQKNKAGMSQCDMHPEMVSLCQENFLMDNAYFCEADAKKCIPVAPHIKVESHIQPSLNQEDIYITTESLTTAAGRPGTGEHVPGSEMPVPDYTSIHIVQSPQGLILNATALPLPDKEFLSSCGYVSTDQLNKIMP
Test: Cell binding assays (competition with 125I-GH)
Details: unlabeled competitor, 0° C., 90 minutes
Experimental: Cells are then resuspended and layered over 200 μl ice cold FCS in a 350 μl plastic centrifuge tube and centrifuged (1000 g; […]). The pellet is collected by cutting off the end of the tube and pellet and supernatant counted separately in a gamma counter (Packard).
Specific binding (cpm) is determined as total binding in the absence of a competitor (mean of duplicates) minus binding (cpm) in the presence of 100-fold excess of unlabeled GH (non-specific binding). The non-specific binding is measured for each of the cell types used.

GM-CSF: granulocyte-macrophage colony stimulating factor, negative control
inhibition of 125I-GH binding: not
